What was measured:
[1] = test system: diabetic db/db mice; experiment: overnight fast and IPGTT in diabetic mice after SC administration; type: in vivo; conditions: SC at 9 pm, fasted overnight; GLP-1-Tf 1 or 10 mg
Protocol: A group of diabetic mice were given Tf or GLP-1-Tf via SC administration at 9 pm, fasted overnight and an IPGTT performed the next morning. The fasted Tf-treated animals had lower fasting blood glucose than ad libitum fed animals (238±39 versus 358±23 mg/dl; compare 0 time/fasted animals of FIG. 10c with 0 time/fed animals of FIG. 10a), and additionally, the animals given 1 or […] had lower fasting blood glucose (132±27 mg/dl) than those given Tf alone.

[2] = test system: db/db mice; experiment: β-cell proliferation (BrdU) and β-cell mass in db/db mice; type: in vivo; conditions: 10 mg/kg IP, third day
Protocol: db/db mice, 6 per time point, received one IP injection of Tf (10 mg/kg) or GLP-1-Tf (10 mg/kg) and were sacrificed 1, 2 and 3 days later for measurement of β-cell proliferation and 3, 5, 8 and 10 days later for measurement of islet mass. Sixty mg/kg 5-bromo-2-deoxyuridine (BrdU, Sigma) was injected IP 6 hours before sacrifice. BrdU is a thymidine analog that is incorporated during S-phase of cell mitosis. Pancreata were removed, fixed overnight in 4% buffered formalin, processed for embedding in paraffin and histological sections (4 μm) mounted on poly-1-lysine-coated glass slides. BrdU was detected with a BrdU antibody (Sigma, 1:500 and also confirmed with Zymed antibody, 1:250) and BrdU staining kit (Zymed Laboratories Inc). Five to six hundred islets from each condition were then visualized and the number of islets that contained BrdU+ cells as well as the percent BrdU+ nuclei per total number of islet cells was quantified. For insulin staining and determination of β-cell mass histological sections were treated with a guinea-pig insulin antibody (Linco). […] The total pancreatic area and β-cell positive area for every image were quantified using MetaMorph 4.6.3 software (Universal Imaging Inc., West Chester).

B1: Tf: transferrin with the two N-linked glycosylation sites eliminated, expressed in S. cerevisiae; control protein (protein)
chain: VPDKTVRWCAVSEHEATKCQSFRDHMKSVIPSDGPSVACVKKASYLDCIRAIAANEADAVTLDAGLVYDAYLAPNNLKPVVAEFYGSKEDPQTFYYAVAVVKKDSGFQMNQLRGKKSCHTGLGRSAGWNIPIGLLYCDLPEPRKPLEKAVANFFSGSCAPCADGTDFPQLCQLCPGCGCSTLNQYFGYSGAFKCLKDGAGDVAFVKHSTIFENLANKADRDQYELLCLDNTRKPVDEYKDCHLAQVPSHTVVARSMGGKEDLIWELLNQAQEHFGKDKSKEFQLFSSPHGKDLLFKDSAHGFLKVPPRMDAKMYLGYEYVTAIRNLREGTCPEAPTDECKPVKWCALSHHERLKCDEWSVNSVGKIECVSAETTEDCIAKIMNGEADAMSLDGGFVYIAGKCGLVPVLAENYNKADNCEDTPEAGYFAVAVVKKSASDLTWDNLKGKKSCHTAVGRTAGWNIPMGLLYNKINHCRFDEFFSEGCAPGSKKDSSLCKLCMGSGLNLCEPNNKEGYYGYTGAFRCLVEKGDVAFVKHQTVPQNTGGKNPDPWAKNLNEKDYELLCLDGTRKPVEEYANCHLARAPNHAVVTRKDKEACVHKILRQQQHLFGSNVADCSGNFCLFRSETKDLLFRDDTVCLAKLHDRNTYEKYLGEEYVKAVGNLRKCSTSSLLEACTFRRP
[1]
  fasting blood glucose: 238 ± 39 mg/dL
[2]
  islets with 1 or more BRDU+ nuclei: 35%
